Experimental data from article PMC8692352 (2023).

T1: plasminogen (Homo sapiens, UniProt P00747)
T1 chain: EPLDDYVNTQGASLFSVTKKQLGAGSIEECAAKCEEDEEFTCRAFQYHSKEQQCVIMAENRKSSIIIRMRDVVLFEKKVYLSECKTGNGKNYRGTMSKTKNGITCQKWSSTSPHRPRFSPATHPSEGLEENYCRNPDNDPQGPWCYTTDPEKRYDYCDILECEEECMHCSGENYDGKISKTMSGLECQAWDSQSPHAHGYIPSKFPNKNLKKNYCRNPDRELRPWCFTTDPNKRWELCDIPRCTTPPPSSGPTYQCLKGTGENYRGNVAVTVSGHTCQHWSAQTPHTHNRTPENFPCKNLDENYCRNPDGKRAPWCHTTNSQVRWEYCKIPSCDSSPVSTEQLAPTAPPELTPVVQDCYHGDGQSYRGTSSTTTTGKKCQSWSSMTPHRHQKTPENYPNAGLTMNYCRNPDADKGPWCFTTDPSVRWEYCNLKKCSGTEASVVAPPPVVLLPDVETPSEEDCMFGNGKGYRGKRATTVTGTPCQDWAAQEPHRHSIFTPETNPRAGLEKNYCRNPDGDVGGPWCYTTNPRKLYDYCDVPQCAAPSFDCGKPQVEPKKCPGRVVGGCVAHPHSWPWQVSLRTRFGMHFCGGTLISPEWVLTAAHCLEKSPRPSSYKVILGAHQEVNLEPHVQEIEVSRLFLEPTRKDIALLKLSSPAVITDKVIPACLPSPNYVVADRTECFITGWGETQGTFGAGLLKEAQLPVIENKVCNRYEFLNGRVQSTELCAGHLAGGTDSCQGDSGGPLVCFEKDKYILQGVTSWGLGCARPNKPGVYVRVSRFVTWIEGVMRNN

B1: β-globin chain (protein)
chain: not shown
B2: tPA (protein)
chain: SYQVICRDEKTQMIYQQHQSWLRPVLRSNRVEYCWCNSGRAQCHSVPVKSCSEPRCFNGGTCQQALYFSDFVCQCPEGFAGKCCEIDTRATCYEDQGISYRGTWSTAESGAECTNWNSSALAQKPYSGRRPDAIRLGLGNHNYCRNPDRDSKPWCYVFKAGKYSSEFCSTPACSEGNSDCYFGNGSAYRGTHSLTESGASCLPWNSMILIGKVYTAQNPSAQALGLGKHNYCRNPDGDAKPWCHVLKNRRLTWEYCDVPSCSTCGLRQYSQPQFRIKGGLFADIASHPWQAAIFAKHRRSPGERFLCGGILISSCWILSAAHCFQERFPPHHLTVILGRTYRVVPGEEEQKFEVEKYIVHKEFDDDTYDNDIALLQLKSDSSRCAQESSVVRTVCLPPADLQLPDWTECELSGYGKHEALSPFYSERLKEAHVRLYPSSRCTSQHLLNRTVTDNMLCAGDTRSGGPQANLHDACQGDSGGPLVCLNDGRMTLVGIISWGLGCGQKDVPGVYTKVTNYLDWIRDNMRP
B3: α-globin chain (protein)
chain: not shown
B4: hemoglobin A (protein)
chain 1: not shown
chain 2: not shown

Target: T1, plasminogen
Assay: SPR

| Kd | Binder |
| --- | --- |
| 4000 nM | B1 |
| 48 nM | B2 |
| 93 nM | B3 |
| 3600 nM | B4 |
